Experiments:
human CD28 [1] = target: T1, human CD28 (human, UniProt P10747 19-220); test: cell-based or functional assay
human CD28 [2] = target: T1, human CD28; test: cell-based or functional assay; remark: listed apart in the source
human CD28 [3] = target: T1, human CD28; test: cell-based or functional assay; remark: listed apart in the source
human CD28 [4] = target: T1, human CD28; test: cell-based or functional assay; remark: listed apart in the source
human CD22 = target: T2, human CD22 (human, UniProt P20273 20-847); test: flow cytometry on Raji/CD80 and CD86 negative cells
T2 construct: whole, on cells; also called hCD22
Method: Briefly, human CD4+ T-cells, HEK293/hCD20, HEK293/hCD20/hCD22 and Raji/CD80 and CD86 negative cells were resuspended in staining buffer containing D-PBS+2% FBS. […] A negative control sample was included containing no antibody. Cells were washed once with cold staining buffer and incubated for 30-45 minutes with Allophycocyanin (APC) labeled anti-human secondary antibody. After incubation, cells were washed once with cold D-PBS buffer without FBS and incubated with LIVE/DEAD Fixable Green Dead Cell Stain (Invitrogen) according to manufacturer's instructions to discriminate between live and dead cells. Cells were then fixed in BD Cytofix Buffer according to manufacturer's instructions, washed, re-suspended in staining buffer, and analyzed by flow cytometry on an iQue Screener flow cytometer. For EC₅₀ determinations, geometric mean fluorescence intensity (MFI) values were analyzed using a four parameter logistic equation over a 9-point response curve using GraphPad Prism. Fold binding was calculated using the following equation:

B1: REGN5705 (antibody, V domains shown)
VH: QVQLQESGPGLVKPSETLSLTCTVSGGSISSYYWSWIRQPPGKGLEWIGYIYYSGITHYNPSLKSRVTISVDTSKIQFSLKLSSVTAADTAVYYCARWGVRRDYYYYGMDVWGQGTTVTVSS
VL: not shown
Human CD28 [1]
  EC50 [M], luciferase activity, reporter T-cells + HEK293/hCD20, 200 pM REGN1945 (no TCR stimulation): 6.23e-09 M
  EC50 [M], luciferase activity, reporter T-cells + HEK293/hCD20/hCD22, 200 pM REGN1945 (no TCR stimulation): 8.45e-09 M
  EC50 [M], luciferase activity, reporter T-cells + Raji/CD80 and CD86 negative, 200 pM REGN1945 (no TCR stimulation): 7.88e-09 M
  Max RLU, luciferase activity, reporter T-cells + HEK293/hCD20, 200 pM REGN1945 (no TCR stimulation): 25000 RLU
  Max RLU, luciferase activity, reporter T-cells + HEK293/hCD20/hCD22, 200 pM REGN1945 (no TCR stimulation): 25100 RLU
  Max RLU, luciferase activity, reporter T-cells + Raji/CD80 and CD86 negative, 200 pM REGN1945 (no TCR stimulation): 33200 RLU
Human CD28 [2]
  EC50 [M], luciferase activity, reporter T-cells + HEK293/hCD20, 200 pM REGN2281 (αCD20 x αCD3): 2.63e-10 M
  EC50 [M], luciferase activity, reporter T-cells + HEK293/hCD20/hCD22, 200 pM REGN2281 (αCD20 x αCD3): 7.7e-11 M
  EC50 [M], luciferase activity, reporter T-cells + Raji/CD80 and CD86 negative, 200 pM REGN2281 (αCD20 x αCD3): 4.33e-10 M
  Max RLU, luciferase activity, reporter T-cells + HEK293/hCD20, 200 pM REGN2281 (αCD20 x αCD3): 409000 RLU
  Max RLU, luciferase activity, reporter T-cells + HEK293/hCD20/hCD22, 200 pM REGN2281 (αCD20 x αCD3): 171000 RLU
  Max RLU, luciferase activity, reporter T-cells + Raji/CD80 and CD86 negative, 200 pM REGN2281 (αCD20 x αCD3): 569000 RLU
Human CD28 [3]
  EC50 [M], IL-2 release, primary human CD4+ T-cells + Raji/CD80 and CD86 negative, 2 nM REGN1945 (isotype control): 1.11e-10 M
  Max RFU, IL-2 release, primary human CD4+ T-cells + HEK293/hCD20, 2 nM REGN1945 (isotype control): 2290 RFU
  Max RFU, IL-2 release, primary human CD4+ T-cells + HEK293/hCD20/hCD22, 2 nM REGN1945 (isotype control): 2950 RFU
  Max RFU, IL-2 release, primary human CD4+ T-cells + Raji/CD80 and CD86 negative, 2 nM REGN1945 (isotype control): 49500 RFU
Human CD28 [4]
  EC50 [M], IL-2 release, primary human CD4+ T-cells + HEK293/hCD20, 2 nM REGN2281 (αCD20 x αCD3): 2.23e-09 M
  EC50 [M], IL-2 release, primary human CD4+ T-cells + Raji/CD80 and CD86 negative, 2 nM REGN2281 (αCD20 x αCD3): 4.51e-11 M
  Max RFU, IL-2 release, primary human CD4+ T-cells + HEK293/hCD20, 2 nM REGN2281 (αCD20 x αCD3): 68900 RFU
  Max RFU, IL-2 release, primary human CD4+ T-cells + HEK293/hCD20/hCD22, 2 nM REGN2281 (αCD20 x αCD3): 57400 RFU
  Max RFU, IL-2 release, primary human CD4+ T-cells + Raji/CD80 and CD86 negative, 2 nM REGN2281 (αCD20 x αCD3): 249000 RFU

B2: REGN5837 (bispecific antibody, human IgG4, V domains shown)
VH 1: QVQLQESGPGLVKPSETLSLTCTVSGGSISSYYWSWIRQPPGKGLEWIGYIYYSGITHYNPSLKSRVTISVDTSKIQFSLKLSSVTAADTAVYYCARWGVRRDYYYYGMDVWGQGTTVTVSS
VH 2: EVQLVQSGAEVKKPGESLKISCKGSGYNFATYWIAWVRQMPGKGLELMGIIYPGDSETTYNPSFQGQVTISADKSISNAYLQWSSLKASDTAMYYCARVGGYCSGTSCHNWFDPWGLGTLVTVSS
VL: not shown
notes: also called anti-CD22 x anti-CD28 bispecific antibody; CD22xCD28
Human CD22
  EC50: 9.76 nM

From patent US20230174652A1 (Regeneron, published 2023)
